T1: PTPN13_1, Q12923
T1 sequence (Q12923 1088-1188, limits assumed, looked up): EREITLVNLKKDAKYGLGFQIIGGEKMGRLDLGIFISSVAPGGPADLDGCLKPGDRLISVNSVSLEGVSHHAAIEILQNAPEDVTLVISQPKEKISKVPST

T2: ARHGEF11, O15085
T2 sequence (O15085 42-136, limits assumed, looked up): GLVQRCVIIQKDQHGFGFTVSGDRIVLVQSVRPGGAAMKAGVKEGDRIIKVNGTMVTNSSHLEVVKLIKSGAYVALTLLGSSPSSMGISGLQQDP

T3: APBA1_2, Q02410
T3 sequence (Q02410 742-832, limits assumed, looked up): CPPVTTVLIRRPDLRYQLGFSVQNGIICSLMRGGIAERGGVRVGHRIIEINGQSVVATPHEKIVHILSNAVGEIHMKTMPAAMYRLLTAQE

T4: RHPN1, Q8TCX5
T4 sequence (Q8TCX5 508-602, limits assumed, looked up): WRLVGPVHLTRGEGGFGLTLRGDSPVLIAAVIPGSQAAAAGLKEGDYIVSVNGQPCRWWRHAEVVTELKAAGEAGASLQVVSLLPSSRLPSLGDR

T5: SNTB1, Q13884
T5 sequence (Q13884 107-205, limits assumed, looked up): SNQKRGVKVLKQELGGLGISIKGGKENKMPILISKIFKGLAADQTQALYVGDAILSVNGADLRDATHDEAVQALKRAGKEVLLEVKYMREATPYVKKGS

T6: SNTG2, Q9NY99
T6 sequence (Q9NY99 68-166, limits assumed, looked up): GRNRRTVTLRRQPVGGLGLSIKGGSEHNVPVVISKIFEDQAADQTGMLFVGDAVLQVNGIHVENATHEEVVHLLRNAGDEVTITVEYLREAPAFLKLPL

T7: RADIL, Q96JH8
T7 sequence (Q96JH8 971-1071, limits assumed, looked up): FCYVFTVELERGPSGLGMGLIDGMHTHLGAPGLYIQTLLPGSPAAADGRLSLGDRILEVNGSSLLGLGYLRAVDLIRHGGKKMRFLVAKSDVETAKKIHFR

T8: GRIP1_3, Q9Y3R0
T8 sequence (Q9Y3R0 247-346, limits assumed, looked up): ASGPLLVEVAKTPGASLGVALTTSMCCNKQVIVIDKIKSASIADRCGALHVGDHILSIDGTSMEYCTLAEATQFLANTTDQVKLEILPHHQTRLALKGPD

T9: MPDZ_12, O75970
T9 sequence (O75970 1857-1958, limits assumed, looked up): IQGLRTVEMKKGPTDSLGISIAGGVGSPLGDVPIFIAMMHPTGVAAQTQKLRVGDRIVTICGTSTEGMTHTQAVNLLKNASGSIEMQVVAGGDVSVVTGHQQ

T10: GRIP1_2, Q9Y3R0
T10 sequence (Q9Y3R0 145-248, limits assumed, looked up): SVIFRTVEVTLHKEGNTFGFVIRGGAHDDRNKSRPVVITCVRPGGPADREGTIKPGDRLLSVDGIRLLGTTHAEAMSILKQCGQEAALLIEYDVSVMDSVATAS

T11: PDZRN3_1, Q9UPQ7
T11 sequence (Q9UPQ7 244-349, limits assumed, looked up): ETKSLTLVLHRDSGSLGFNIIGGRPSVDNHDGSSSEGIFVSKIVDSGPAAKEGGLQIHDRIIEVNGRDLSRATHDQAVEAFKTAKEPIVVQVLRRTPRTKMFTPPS

T12: LRRC7, Q96NW7
T12 sequence (Q96NW7 1440-1537, limits assumed, looked up): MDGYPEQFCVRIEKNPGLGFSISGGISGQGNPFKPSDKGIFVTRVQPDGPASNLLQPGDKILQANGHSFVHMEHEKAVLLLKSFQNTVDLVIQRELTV


Columns and labels:
Test in all cases: holdup assay
Set-up in all cases: key: below the threshold = too weak to quantify, mostly under pKd 3.1 to 4
Conditions in all cases: plain residues with an end cap or a label only (N-terminal biotin on a linker: ado-ado)
PTPN13_1, Q12923 = target: T1, PTPN13_1, Q12923
ARHGEF11, O15085 = target: T2, ARHGEF11, O15085
MAGI2_5, Q86UL8 = target: MAGI2_5, Q86UL8
Chain of MAGI2_5, Q86UL8 (Q86UL8 915-1017): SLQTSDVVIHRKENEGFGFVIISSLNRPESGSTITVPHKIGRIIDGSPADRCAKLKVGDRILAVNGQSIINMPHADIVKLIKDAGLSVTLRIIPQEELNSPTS

APBA1_2, Q02410 = target: T3, APBA1_2, Q02410
DLG2_2, Q15700 = target: DLG2_2, Q15700
Chain of DLG2_2, Q15700 (Q15700 189-283): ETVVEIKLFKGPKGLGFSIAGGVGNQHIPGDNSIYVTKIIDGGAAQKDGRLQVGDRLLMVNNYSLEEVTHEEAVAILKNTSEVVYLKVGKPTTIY

RHPN1, Q8TCX5 = target: T4, RHPN1, Q8TCX5
SCRIB_3, Q14160 = target: SCRIB_3, Q14160
Chain of SCRIB_3, Q14160 (Q14160 999-1103): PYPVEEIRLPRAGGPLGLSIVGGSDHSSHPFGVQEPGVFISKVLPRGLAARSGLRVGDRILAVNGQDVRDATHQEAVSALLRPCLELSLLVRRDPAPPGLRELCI

SNTB1, Q13884 = target: T5, SNTB1, Q13884
DLG1_1, Q12959 = target: DLG1_1, Q12959
Inadl_4, Q8NI35 = target: Inadl_4, Q8NI35
Chain of Inadl_4, Q8NI35 (Q8NI35 547-651): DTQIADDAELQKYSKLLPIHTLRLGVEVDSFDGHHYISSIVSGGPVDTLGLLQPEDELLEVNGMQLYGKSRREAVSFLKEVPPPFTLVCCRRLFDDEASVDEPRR

SNTG2, Q9NY99 = target: T6, SNTG2, Q9NY99
SCRIB_1, Q14160 = target: SCRIB_1, Q14160
Chain of SCRIB_1, Q14160 (Q14160 718-814): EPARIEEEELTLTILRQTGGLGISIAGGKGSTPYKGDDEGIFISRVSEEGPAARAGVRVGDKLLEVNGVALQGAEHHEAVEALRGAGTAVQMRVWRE

PARD3_3, Q8TEW0 = target: PARD3_3, Q8TEW0
Chain of PARD3_3, Q8TEW0 (Q8TEW0 582-685): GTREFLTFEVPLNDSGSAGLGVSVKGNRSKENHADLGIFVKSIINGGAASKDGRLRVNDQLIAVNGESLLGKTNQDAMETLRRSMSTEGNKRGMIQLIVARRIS

RADIL, Q96JH8 = target: T7, RADIL, Q96JH8
GRIP1_3, Q9Y3R0 = target: T8, GRIP1_3, Q9Y3R0
DLG5_1, Q8TDM6 = target: DLG5_1, Q8TDM6
Chain of DLG5_1, Q8TDM6 (Q8TDM6 617-713): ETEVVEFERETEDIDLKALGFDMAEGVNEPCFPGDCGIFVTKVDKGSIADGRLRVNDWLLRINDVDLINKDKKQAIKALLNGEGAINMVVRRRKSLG

MAGI2_3, Q86UL8 = target: MAGI2_3, Q86UL8
Chain of MAGI2_3, Q86UL8 (Q86UL8 600-682): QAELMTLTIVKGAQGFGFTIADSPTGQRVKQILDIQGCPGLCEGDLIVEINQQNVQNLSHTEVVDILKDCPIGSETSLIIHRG

CASK, O14936 = target: CASK, O14936
Chain of CASK, O14936 (O14936 487-570): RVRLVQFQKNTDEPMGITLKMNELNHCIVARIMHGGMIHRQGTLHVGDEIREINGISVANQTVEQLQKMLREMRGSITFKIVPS

NHERF4_2, Q86UT5 = target: NHERF4_2, Q86UT5
Chain of NHERF4_2, Q86UT5 (Q86UT5 220-308): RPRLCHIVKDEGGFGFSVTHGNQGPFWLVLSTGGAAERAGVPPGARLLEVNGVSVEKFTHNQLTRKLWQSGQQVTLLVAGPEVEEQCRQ

MPDZ_12, O75970 = target: T9, MPDZ_12, O75970
GRIP1_2, Q9Y3R0 = target: T10, GRIP1_2, Q9Y3R0
Inadl_10, Q8NI35 = target: Inadl_10, Q8NI35
Chain of Inadl_10, Q8NI35 (Q8NI35 1673-1763): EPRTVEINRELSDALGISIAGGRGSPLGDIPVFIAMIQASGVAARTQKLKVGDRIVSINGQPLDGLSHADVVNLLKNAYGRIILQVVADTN

ARHGEF12, Q9NZN5-2 = target: ARHGEF12, Q9NZN5-2
Chain of ARHGEF12, Q9NZN5-2 (Q9NZN5 other isoform, or with tags, fused parts or gaps): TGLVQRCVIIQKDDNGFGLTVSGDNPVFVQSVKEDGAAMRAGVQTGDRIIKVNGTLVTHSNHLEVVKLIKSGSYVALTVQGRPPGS

DLG4_2, P78352 = target: DLG4_2, P78352
Chain of DLG4_2, P78352 (P78352 155-259): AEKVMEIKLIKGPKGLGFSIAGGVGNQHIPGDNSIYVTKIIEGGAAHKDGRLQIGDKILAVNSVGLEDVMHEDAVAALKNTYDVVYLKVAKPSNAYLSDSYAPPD

PDZRN3_1, Q9UPQ7 = target: T11, PDZRN3_1, Q9UPQ7
LRRC7, Q96NW7 = target: T12, LRRC7, Q96NW7

Binder	pKd (PTPN13_1, Q12923)	pKd (ARHGEF11, O15085)	pKd (MAGI2_5, Q86UL8)	pKd (APBA1_2, Q02410)	pKd (DLG2_2, Q15700)	pKd (RHPN1, Q8TCX5)	pKd (SCRIB_3, Q14160)	pKd (SNTB1, Q13884)	pKd (DLG1_1, Q12959)	pKd (Inadl_4, Q8NI35)	pKd (SNTG2, Q9NY99)	pKd (SCRIB_1, Q14160)	pKd (PARD3_3, Q8TEW0)	pKd (RADIL, Q96JH8)	pKd (GRIP1_3, Q9Y3R0)	pKd (DLG5_1, Q8TDM6)	pKd (MAGI2_3, Q86UL8)	pKd (CASK, O14936)	pKd (NHERF4_2, Q86UT5)	pKd (MPDZ_12, O75970)	also measured
TLPRKRMSSI [GPRC6A, Q5T6X5]	below the threshold	below the threshold	below the threshold	below the threshold	below the threshold	below the threshold	3.49	below the threshold	below the threshold	below the threshold	below the threshold	below the threshold	below the threshold	below the threshold	below the threshold	below the threshold	below the threshold	below the threshold	below the threshold	below the threshold	pKd (GRIP1_2, Q9Y3R0): below the threshold; pKd (Inadl_10, Q8NI35): below the threshold; pKd (ARHGEF12, Q9NZN5-2): 3.54; pKd (DLG4_2, P78352): below the threshold; pKd (PDZRN3_1, Q9UPQ7): below the threshold; pKd (LRRC7, Q96NW7): below the threshold
HSGYRLNDYV [CLDN14, O95500]	below the threshold	3.71	below the threshold	3.84	below the threshold	below the threshold	below the threshold	3.54	below the threshold	below the threshold	below the threshold	below the threshold	3.83	4.6	below the threshold	below the threshold	below the threshold	below the threshold	below the threshold	below the threshold	pKd (GRIP1_2, Q9Y3R0): below the threshold; pKd (Inadl_10, Q8NI35): below the threshold; pKd (ARHGEF12, Q9NZN5-2): below the threshold; pKd (DLG4_2, P78352): below the threshold; pKd (PDZRN3_1, Q9UPQ7): below the threshold; pKd (LRRC7, Q96NW7): below the threshold
QSPANIYYKV [EFNB1, P52799]	below the threshold	below the threshold	below the threshold	below the threshold	below the threshold	below the threshold	below the threshold	below the threshold	below the threshold	below the threshold	below the threshold	below the threshold	below the threshold	4.05	below the threshold	below the threshold	below the threshold	below the threshold	below the threshold	below the threshold	pKd (GRIP1_2, Q9Y3R0): below the threshold; pKd (Inadl_10, Q8NI35): below the threshold; pKd (ARHGEF12, Q9NZN5-2): below the threshold; pKd (DLG4_2, P78352): below the threshold; pKd (PDZRN3_1, Q9UPQ7): below the threshold; pKd (LRRC7, Q96NW7): below the threshold

Further lines, with some results ahead:

pKd (PTPN13_1, Q12923)	pKd (ARHGEF11, O15085)	pKd (MAGI2_5, Q86UL8)	pKd (APBA1_2, Q02410)	pKd (DLG2_2, Q15700)	pKd (RHPN1, Q8TCX5)	pKd (SCRIB_3, Q14160)	pKd (SNTB1, Q13884)	pKd (DLG1_1, Q12959)	pKd (Inadl_4, Q8NI35)	pKd (SNTG2, Q9NY99)	pKd (SCRIB_1, Q14160)	pKd (PARD3_3, Q8TEW0)	pKd (RADIL, Q96JH8)	pKd (GRIP1_3, Q9Y3R0)	pKd (DLG5_1, Q8TDM6)	pKd (MAGI2_3, Q86UL8)	pKd (CASK, O14936)	pKd (NHERF4_2, Q86UT5)	pKd (MPDZ_12, O75970)	Binder	also measured
below the threshold	below the threshold	below the threshold	3.86	below the threshold	below the threshold	below the threshold	below the threshold	below the threshold	below the threshold	below the threshold	below the threshold	below the threshold	below the threshold	below the threshold	below the threshold	below the threshold	below the threshold	below the threshold	below the threshold	TSSMRGMDAV [RSRC2, Q7L4I2]	pKd (GRIP1_2, Q9Y3R0): below the threshold; pKd (Inadl_10, Q8NI35): below the threshold; pKd (ARHGEF12, Q9NZN5-2): below the threshold; pKd (DLG4_2, P78352): below the threshold; pKd (PDZRN3_1, Q9UPQ7): below the threshold; pKd (LRRC7, Q96NW7): below the threshold
below the threshold	4.44	4.36	3.87	4.76	4.24	4.14	4.95	4.56	below the threshold	4.38	4.3	3.85	4.35	below the threshold	below the threshold	below the threshold	below the threshold	below the threshold	below the threshold	TACCHSETVV [TGFA, P01135]	pKd (GRIP1_2, Q9Y3R0): below the threshold; pKd (Inadl_10, Q8NI35): below the threshold; pKd (ARHGEF12, Q9NZN5-2): 3.56; pKd (DLG4_2, P78352): 4.82; pKd (PDZRN3_1, Q9UPQ7): 3.78; pKd (LRRC7, Q96NW7): below the threshold
